Measurements as given in patent US20140087995A1 (published 2014).
Each block holds one binder with its values, some of them ahead of it. Numbered stars: 1 amine (or outer) side, 2 acyl side, 3 side chain; on linkers, the order of the positions; unused ones are H or OH. Bridge positions count the residues as written; N and C are the ends. Side chains are listed from the residue outwards. Ends that are not written are not given here. * marks the point of attachment. C20 diacid = O=C(O)CCCCCCCCCCCCCCCCCCC(=O)*; γGlu = O=C(O)[C@H](CCC(=O)[*:2])N[*:1]

Molecular target: T1, human calcitonin receptor (human, UniProt P30988 25-474)
T1 sequence (looked up): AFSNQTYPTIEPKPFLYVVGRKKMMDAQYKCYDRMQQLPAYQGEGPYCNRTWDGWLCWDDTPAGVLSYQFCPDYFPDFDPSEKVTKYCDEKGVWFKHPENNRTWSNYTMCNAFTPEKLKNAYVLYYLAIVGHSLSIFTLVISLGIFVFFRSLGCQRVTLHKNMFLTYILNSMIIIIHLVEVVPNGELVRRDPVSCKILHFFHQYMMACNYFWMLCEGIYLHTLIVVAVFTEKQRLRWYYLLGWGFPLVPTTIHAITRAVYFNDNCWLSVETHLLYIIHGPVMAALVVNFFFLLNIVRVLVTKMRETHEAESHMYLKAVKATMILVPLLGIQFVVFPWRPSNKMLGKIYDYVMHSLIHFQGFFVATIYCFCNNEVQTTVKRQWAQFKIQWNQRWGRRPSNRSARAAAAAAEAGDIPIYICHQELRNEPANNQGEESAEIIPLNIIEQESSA
Test: cell-based or functional assay

hCTR funct. EC50: 3.94 nM
B1: N^ε1-[(4S)-4-carboxy-4-(19-carboxynonadecanoylamino)butanoyl]-[Arg17,Pro21,Pro27,Arg34]-h-amylin (peptide)
peptide: K([γGlu-C20 diacid])CNTATCATQRLANFLRHSSPNFGAIPSSTNVGRNTY-NH2
modifications: disulfide 2-7; N-terminus assumed
SMILES: CC[C@H](C)[C@H](NC(=O)[C@H](C)NC(=O)CNC(=O)[C@H](Cc1ccccc1)NC(=O)[C@H](CC(N)=O)NC(=O)[C@@H]1CCCN1C(=O)[C@H](CO)NC(=O)[C@H](CO)NC(=O)[C@H](Cc1c[nH]cn1)NC(=O)[C@H](CCCNC(=N)N)NC(=O)[C@H](CC(C)C)NC(=O)[C@H](Cc1ccccc1)NC(=O)[C@H](CC(N)=O)NC(=O)[C@H](C)NC(=O)[C@H](CC(C)C)NC(=O)[C@H](CCCNC(=N)N)NC(=O)[C@H](CCC(N)=O)NC(=O)[C@@H](NC(=O)[C@H](C)NC(=O)[C@@H]1CSSC[C@H](NC(=O)[C@@H](N)CCCCNC(=O)CC[C@H](NC(=O)CCCCCCCCCCCCCCCCCCC(=O)O)C(=O)O)C(=O)N[C@@H](CC(N)=O)C(=O)N[C@@H]([C@@H](C)O)C(=O)N[C@@H](C)C(=O)N[C@@H]([C@@H](C)O)C(=O)N1)[C@@H](C)O)C(=O)N1CCC[C@H]1C(=O)N[C@@H](CO)C(=O)N[C@@H](CO)C(=O)N[C@H](C(=O)N[C@@H](CC(N)=O)C(=O)N[C@H](C(=O)NCC(=O)N[C@@H](CCCNC(=N)N)C(=O)N[C@@H](CC(N)=O)C(=O)N[C@H](C(=O)N[C@@H](Cc1ccc(O)cc1)C(N)=O)[C@@H](C)O)C(C)C)[C@@H](C)O
notes: also called compound 79

hCTR funct. EC50: 5.36 nM
B3: N^ε1-[(4S)-4-carboxy-4-(19-carboxynonadecanoylamino)butanoyl]-[Arg17,Pro21,Pro27,His35]-h-amylin (peptide)
peptide: K([γGlu-C20 diacid])CNTATCATQRLANFLRHSSPNFGAIPSSTNVGSHTY-NH2
modifications: disulfide 2-7; N-terminus assumed
SMILES: CC[C@H](C)[C@H](NC(=O)[C@H](C)NC(=O)CNC(=O)[C@H](Cc1ccccc1)NC(=O)[C@H](CC(N)=O)NC(=O)[C@@H]1CCCN1C(=O)[C@H](CO)NC(=O)[C@H](CO)NC(=O)[C@H](Cc1c[nH]cn1)NC(=O)[C@H](CCCNC(=N)N)NC(=O)[C@H](CC(C)C)NC(=O)[C@H](Cc1ccccc1)NC(=O)[C@H](CC(N)=O)NC(=O)[C@H](C)NC(=O)[C@H](CC(C)C)NC(=O)[C@H](CCCNC(=N)N)NC(=O)[C@H](CCC(N)=O)NC(=O)[C@@H](NC(=O)[C@H](C)NC(=O)[C@@H]1CSSC[C@H](NC(=O)[C@@H](N)CCCCNC(=O)CC[C@H](NC(=O)CCCCCCCCCCCCCCCCCCC(=O)O)C(=O)O)C(=O)N[C@@H](CC(N)=O)C(=O)N[C@@H]([C@@H](C)O)C(=O)N[C@@H](C)C(=O)N[C@@H]([C@@H](C)O)C(=O)N1)[C@@H](C)O)C(=O)N1CCC[C@H]1C(=O)N[C@@H](CO)C(=O)N[C@@H](CO)C(=O)N[C@H](C(=O)N[C@@H](CC(N)=O)C(=O)N[C@H](C(=O)NCC(=O)N[C@@H](CO)C(=O)N[C@@H](Cc1c[nH]cn1)C(=O)N[C@H](C(=O)N[C@@H](Cc1ccc(O)cc1)C(N)=O)[C@@H](C)O)C(C)C)[C@@H](C)O
notes: also called compound 60

hCTR funct. EC50: 0.542 nM
B5: N^ε1-[(4S)-4-carboxy-4-(19-carboxynonadecanoylamino)butanoyl]-[His14,Arg17,Pro21,Pro27,His35]-h-amylin (peptide)
peptide: K([γGlu-C20 diacid])CNTATCATQRLAHFLRHSSPNFGAIPSSTNVGSHTY-NH2
modifications: disulfide 2-7; N-terminus assumed
SMILES: CC[C@H](C)[C@H](NC(=O)[C@H](C)NC(=O)CNC(=O)[C@H](Cc1ccccc1)NC(=O)[C@H](CC(N)=O)NC(=O)[C@@H]1CCCN1C(=O)[C@H](CO)NC(=O)[C@H](CO)NC(=O)[C@H](Cc1c[nH]cn1)NC(=O)[C@H](CCCNC(=N)N)NC(=O)[C@H](CC(C)C)NC(=O)[C@H](Cc1ccccc1)NC(=O)[C@H](Cc1c[nH]cn1)NC(=O)[C@H](C)NC(=O)[C@H](CC(C)C)NC(=O)[C@H](CCCNC(=N)N)NC(=O)[C@H](CCC(N)=O)NC(=O)[C@@H](NC(=O)[C@H](C)NC(=O)[C@@H]1CSSC[C@H](NC(=O)[C@@H](N)CCCCNC(=O)CC[C@H](NC(=O)CCCCCCCCCCCCCCCCCCC(=O)O)C(=O)O)C(=O)N[C@@H](CC(N)=O)C(=O)N[C@@H]([C@@H](C)O)C(=O)N[C@@H](C)C(=O)N[C@@H]([C@@H](C)O)C(=O)N1)[C@@H](C)O)C(=O)N1CCC[C@H]1C(=O)N[C@@H](CO)C(=O)N[C@@H](CO)C(=O)N[C@H](C(=O)N[C@@H](CC(N)=O)C(=O)N[C@H](C(=O)NCC(=O)N[C@@H](CO)C(=O)N[C@@H](Cc1c[nH]cn1)C(=O)N[C@H](C(=O)N[C@@H](Cc1ccc(O)cc1)C(N)=O)[C@@H](C)O)C(C)C)[C@@H](C)O
notes: also called compound 66

The next lines start with the binder.

B2: N^ε1-[(4S)-4-carboxy-4-(19-carboxynonadecanoylamino)butanoyl]-[Arg17,Pro21,Pro27,His34]-h-amylin (peptide)
peptide: K([γGlu-C20 diacid])CNTATCATQRLANFLRHSSPNFGAIPSSTNVGHNTY-NH2
modifications: disulfide 2-7; N-terminus assumed
SMILES: CC[C@H](C)[C@H](NC(=O)[C@H](C)NC(=O)CNC(=O)[C@H](Cc1ccccc1)NC(=O)[C@H](CC(N)=O)NC(=O)[C@@H]1CCCN1C(=O)[C@H](CO)NC(=O)[C@H](CO)NC(=O)[C@H](Cc1c[nH]cn1)NC(=O)[C@H](CCCNC(=N)N)NC(=O)[C@H](CC(C)C)NC(=O)[C@H](Cc1ccccc1)NC(=O)[C@H](CC(N)=O)NC(=O)[C@H](C)NC(=O)[C@H](CC(C)C)NC(=O)[C@H](CCCNC(=N)N)NC(=O)[C@H](CCC(N)=O)NC(=O)[C@@H](NC(=O)[C@H](C)NC(=O)[C@@H]1CSSC[C@H](NC(=O)[C@@H](N)CCCCNC(=O)CC[C@H](NC(=O)CCCCCCCCCCCCCCCCCCC(=O)O)C(=O)O)C(=O)N[C@@H](CC(N)=O)C(=O)N[C@@H]([C@@H](C)O)C(=O)N[C@@H](C)C(=O)N[C@@H]([C@@H](C)O)C(=O)N1)[C@@H](C)O)C(=O)N1CCC[C@H]1C(=O)N[C@@H](CO)C(=O)N[C@@H](CO)C(=O)N[C@H](C(=O)N[C@@H](CC(N)=O)C(=O)N[C@H](C(=O)NCC(=O)N[C@@H](Cc1c[nH]cn1)C(=O)N[C@@H](CC(N)=O)C(=O)N[C@H](C(=O)N[C@@H](Cc1ccc(O)cc1)C(N)=O)[C@@H](C)O)C(C)C)[C@@H](C)O
notes: also called compound 77
hCTR funct. EC50: 5.4 nM

B4: N^ε1-[(4S)-4-carboxy-4-(19-carboxynonadecanoylamino)butanoyl]-[His14,Arg17,Pro21,Pro27,Arg34]-h-amylin (peptide)
peptide: K([γGlu-C20 diacid])CNTATCATQRLAHFLRHSSPNFGAIPSSTNVGRNTY-NH2
modifications: disulfide 2-7; N-terminus assumed
SMILES: CC[C@H](C)[C@H](NC(=O)[C@H](C)NC(=O)CNC(=O)[C@H](Cc1ccccc1)NC(=O)[C@H](CC(N)=O)NC(=O)[C@@H]1CCCN1C(=O)[C@H](CO)NC(=O)[C@H](CO)NC(=O)[C@H](Cc1c[nH]cn1)NC(=O)[C@H](CCCNC(=N)N)NC(=O)[C@H](CC(C)C)NC(=O)[C@H](Cc1ccccc1)NC(=O)[C@H](Cc1c[nH]cn1)NC(=O)[C@H](C)NC(=O)[C@H](CC(C)C)NC(=O)[C@H](CCCNC(=N)N)NC(=O)[C@H](CCC(N)=O)NC(=O)[C@@H](NC(=O)[C@H](C)NC(=O)[C@@H]1CSSC[C@H](NC(=O)[C@@H](N)CCCCNC(=O)CC[C@H](NC(=O)CCCCCCCCCCCCCCCCCCC(=O)O)C(=O)O)C(=O)N[C@@H](CC(N)=O)C(=O)N[C@@H]([C@@H](C)O)C(=O)N[C@@H](C)C(=O)N[C@@H]([C@@H](C)O)C(=O)N1)[C@@H](C)O)C(=O)N1CCC[C@H]1C(=O)N[C@@H](CO)C(=O)N[C@@H](CO)C(=O)N[C@H](C(=O)N[C@@H](CC(N)=O)C(=O)N[C@H](C(=O)NCC(=O)N[C@@H](CCCNC(=N)N)C(=O)N[C@@H](CC(N)=O)C(=O)N[C@H](C(=O)N[C@@H](Cc1ccc(O)cc1)C(N)=O)[C@@H](C)O)C(C)C)[C@@H](C)O
notes: also called compound 85
hCTR funct. EC50: 3.88 nM

B6: N^ε1-[(4S)-4-carboxy-4-(19-carboxynonadecanoylamino)butanoyl]-[His14,Arg17,Pro21,Pro27,His34]-h-amylin (peptide)
peptide: K([γGlu-C20 diacid])CNTATCATQRLAHFLRHSSPNFGAIPSSTNVGHNTY-NH2
modifications: disulfide 2-7; N-terminus assumed
SMILES: CC[C@H](C)[C@H](NC(=O)[C@H](C)NC(=O)CNC(=O)[C@H](Cc1ccccc1)NC(=O)[C@H](CC(N)=O)NC(=O)[C@@H]1CCCN1C(=O)[C@H](CO)NC(=O)[C@H](CO)NC(=O)[C@H](Cc1c[nH]cn1)NC(=O)[C@H](CCCNC(=N)N)NC(=O)[C@H](CC(C)C)NC(=O)[C@H](Cc1ccccc1)NC(=O)[C@H](Cc1c[nH]cn1)NC(=O)[C@H](C)NC(=O)[C@H](CC(C)C)NC(=O)[C@H](CCCNC(=N)N)NC(=O)[C@H](CCC(N)=O)NC(=O)[C@@H](NC(=O)[C@H](C)NC(=O)[C@@H]1CSSC[C@H](NC(=O)[C@@H](N)CCCCNC(=O)CC[C@H](NC(=O)CCCCCCCCCCCCCCCCCCC(=O)O)C(=O)O)C(=O)N[C@@H](CC(N)=O)C(=O)N[C@@H]([C@@H](C)O)C(=O)N[C@@H](C)C(=O)N[C@@H]([C@@H](C)O)C(=O)N1)[C@@H](C)O)C(=O)N1CCC[C@H]1C(=O)N[C@@H](CO)C(=O)N[C@@H](CO)C(=O)N[C@H](C(=O)N[C@@H](CC(N)=O)C(=O)N[C@H](C(=O)NCC(=O)N[C@@H](Cc1c[nH]cn1)C(=O)N[C@@H](CC(N)=O)C(=O)N[C@H](C(=O)N[C@@H](Cc1ccc(O)cc1)C(N)=O)[C@@H](C)O)C(C)C)[C@@H](C)O
notes: also called compound 81
hCTR funct. EC50: 1.73 nM
